Usually Km stands for the substrate concentration at which the rate is half of its maximum. What is called kcat is the maximal rate divided by the concentration of active sites. By kcat/Km is commonly meant the turnover number divided by the Michaelis constant.

For 3 molecules, Km, kcat and kcat/Km results are on record in paper PMC2802489.

What all share (assay): purified protein
Data set [1] relates to CC(C)C=O. Conditions: 0.25 mM NADH, 50 mM MOPS pH 7.0, 37 °C, 100 nM enzyme.
The test system of data set [2] is CC=O. To be noted: 0.25 mM NADH, 50 mM MOPS pH 7.0, 37 °C, 100 nM enzyme.
Substrate in data set [3]: CC(C)C=O
Format: biochemical, Escherichia coli. To be noted: 0.25 mM NADPH, 50 mM MOPS pH 7.0, 37 °C, 100 nM enzyme.

Substrate in data set [4]: CC=O
Format: biochemical, Escherichia coli. Conditions: 0.25 mM NADPH, 50 mM MOPS pH 7.0, 37 °C, 100 nM enzyme.

Substrate in data set [5]: CC=O
In kind it is biochemical, Saccharomyces cerevisiae. Conditions: 0.25 mM NADH, 50 mM MOPS pH 7.0, 37 °C, 100 nM enzyme.

As to “AdhA (Lactococcus lactis subsp. lactis Il1403)”, in data set [1], the Km was 9100 ± 2900 µM, the catalytic constant (kcat) worked out at 6.6 ± 0.2 s⁻¹ and the specificity constant (kcat/Km) was 800 M⁻¹ s⁻¹. In data set [2], the Km was 500 ± 200 µM, the kcat is 10 ± 0.3 s⁻¹ and the specificity constant (kcat/Km) came to 20900 M⁻¹ s⁻¹.

B1: YqhD (Escherichia coli K-12) (protein)
chain: NNFNLHTPTRILFGKGAIAGLREQIPHDARVLITYGGGSVKKTGVLDQVLDALKGMDVLEFGGIEPNPAYETLMNAVKLVREQKVTFLLAVGGGSVLDGTKFIAAAANYPENIDPWHILQTGGKEIKSAIPMGCVLTLPATGSESNAGAVISRKTTGDKQAFHSAHVQPVFAVLDPVYTYTLPPRQVANGVVDAFVHTVEQYVTKPVDAKIQDRFAEGILLTLIEDGPKALKEPENYDVRANVMWAATQALNGLIGAGVPQDWATHMLGHELTAMHGLDHAQTLAIVLPALWNEKRDTKRAKLLQYAERVWNITEGSDDERIDAAIAATRNFFEQLGVPTHLSDYGLDGSSIPALLKKLEEHGMTQLGENHDITLDVSRRIYEAAR
For the molecule B1, in data set [3], the Km turned out to be 1800 ± 1300 µM and the kcat came out at 1 ± 0.1 s⁻¹. Further, in data set [4], the Km came to 27600 ± 12400 µM, the catalytic constant (kcat) worked out at 1.1 ± 0.1 s⁻¹ and the kcat/Km worked out at 50 M⁻¹ s⁻¹.

B2: Adh2 (Saccharomyces cerevisiae S288C) (protein)
chain: SIPETQKAIIFYESNGKLEHKDIPVPKPKPNELLINVKYSGVCHTDLHAWHGDWPLPTKLPLVGGHEGAGVVVGMGENVKGWKIGDYAGIKWLNGSCMACEYCELGNESNCPHADLSGYTHDGSFQEYATADAVQAAHIPQGTDLAEVAPILCAGITVYKALKSANLRAGHWAAISGAAGGLGSLAVQYAKAMGYRVLGIDGGPGKEELFTSLGGEVFIDFTKEKDIVSAVVKATNGGAHGIINVSVSEAAIEASTRYCRANGTVVLVGLPAGAKCSSDVFNHVVKSISIVGSYVGNRADTREALDFFARGLVKSPIKVVGLSSLPEIYEKMEKGQIAGRYVVDTSK
As to B2, in data set [5], the Km was 140 ± 20 µM, the catalytic constant (kcat) is 6.6 ± 0.5 s⁻¹ and the catalytic efficiency (kcat/Km) stood at 46900 M⁻¹ s⁻¹.
